Results published in patent publication US8846363B2, “Compositions of and methods of using sulfatases from Flavobacterium heparinum” (priority 2007, dated 2014).

B1: Flavobacterium heparinum N-sulfamidase (ORF C), recombinant, NH2-terminal truncation lacking signal sequence, SEQ ID NO: 4 (Pedobacter heparinus DSM 2366) (protein)
chain: SCTSPEKKTDRPNILMIMSDNQSWNHVGSYGDQTVRTPNMDRIAKEGVRFTNAFCSSPSCTPARAGMLTGQDIWRLEDGGNLWGVLPVKYKVYPDLLEEAGYAIGFQGKGWGPGSFEANKRPRNPAGNEFKSFGAFLKDKKEGPWCYWISSHEPHRPYVEGSGEKAGIDPNKVKVPAYLPDHISIRKDIADYYAAVETFDRELGEALDQLKASGELDNTVIVVCSDNGWQMPRGLANLYDFGTHVPLIISWPGKFKQDVVADNLVTLNDLAPTFLQLGKVPVPADMTGKSLLPIVEAGKKDEKPRDYVVLGRERHAFVRRHGLGYPGRAIRTKDYLYIKNYEPNRWPAGDPPFYGDIDPYMFNWPGETKYYLIEHKDDPKVKSFFELGMGKRPAEELFDINKDPDELHNLAALPEYQKIKQELVAKLRNYLVATKDPRETNGNIQIWDTAAYFSEIDKTPKPSKEMQKRFKLDSSYNYLK
notes: E. coli BL21(DE3), N-terminal 6xHis removed by thrombin
B2: Flavobacterium heparinum 6-O-sulfatase (ORF B), recombinant, NH2-terminal truncation lacking signal sequence, SEQ ID NO: 2 (Pedobacter heparinus DSM 2366) (protein)
chain: TLMSCQQPKPAESAKRPNIVFIMTDDHTIQAISAYGSKLVKTPNLDRIANEGMLFNNCFVTNAVCGPSRATILTGKYSHLNGLTDNSKVFDSTQVIYPQLLKKAGYQTAMIGKWHLGSTPMGFDYYSILPNQGQYYQPEFIENGHLVKEKGYVTDLITDKAIGFLEKRDHDKPFLMIYQHKAPHRNWLPAPRHLGMFDDTVFPEPANLLDDFKGRGRAAKEQLMNISTDMWPAWDLKMLSTAQLDSMAKLPVSPKFKDAKGDDYQQANDPSLDKARFFEVYNRMTDAEKVQWRKVYDKRVAEFKRLNPKGADLVRWKYQQYMRDYLACVVSVDENVGRLMDYLKKIGELDNTIIVYTSDQGFYLGEHGYFDKRFMYDESFRTPLMVRYPPSVKAGSVSNAFAMNLDFAPTLLDYAGVKIPADMQGLSLRPVLDNAGKSPENWRKAVYYHYYEFPSWHMVKRHYGIRTERYKLIHFYNDIDEWELYDMQKDPHEMQNLYNDKAYEPIIKDLKVQMKKLQVQYKDTNPTEAL
notes: as for B1

Columns and labels:
[1] = Storage stability of purified enzymes; type: physicochemical; conditions: 4° C., ~10 mg/mL
Method: Final protein concentrations were determined colorimetrically using the Bradford Assay (Bio-Rad, Hercules, Calif.) and confirmed by UV absorption spectroscopy using theoretical molar extinction coefficients (ε280) of 94,730 M^−1 (61,572 Da) and 86,340 (53,193 Da) for the NH2-terminally truncated ORF B (6-O-sulfatase) and ORF C(N-sulfamidase), respectively. These values were calculated for thrombin-cleaved proteins lacking a 6×His purification tag. Enzymes were stored at 4° C. at a concentration of ˜10 mg/mL.

[2] = Pilot capillary electrophoresis desulfation assay with monosulfated 4-MU gluco- and galactopyranosides; type: biochemical
Method: Initial assessment of substrate specificity and pH optima was made using a capillary electrophoresis-based assay for the detection of desulfated products. Preliminary enzyme activity was measured against the following series of fluorescently derivatized, monosulfated gluco and galactopyranosides: 4-MU-GlcNAc,6S, 4-MU-GlcNS, 4-MU-GalNAc,6S and 4-MU-Gal6S. Standard reactions included 1 mM substrate, 1-10 μM enzyme, 50 mM sodium acetate, pH 5.5-6.5 and 5 mM CaCl2 in a 20 μL reaction volume. For pilot experiments, exhaustive reactions involved overnight incubations at 30° C. Enzyme was inactivated by heat denaturation at 95° C. for 10 minutes, followed by a 10-fold dilution into water. Reaction products were resolved by capillary electrophoresis using a 25 cm long, 75 μm (i.d.) fused silica capillary (Agilent Technologies, Palo Alto, Calif.). Electrophoresis was carried out under negative polarity by applying a voltage of −15 kV (˜1.2 W) for 10 minutes. Substrate desulfation was measured as a percentage of substrate depletion relative to a minus enzyme control as monitored by the loss of UV absorbance at 315 nm detected at approximately 4 minutes. A standard capillary electrophoresis buffer included 50 mM Tris and 10 μM dextran sulfate (average MW of 10,000 Da) adjusted to pH 2.0 with phosphoric acid. At this pH, saccharide migration occurred on the basis of charge without the influence of electro-osmotic flow.

[3] = Fluorimetric arylsulfatase assay using 4-MUS; type: biochemical
Method: Arylsulfatase activity was measured independently using two chromogenic substrates, 4-catechol-sulfate and 4-methylumbelliferyl-sulfate (4-MUS). The catechol substrate assay was conducted generally as described (Beil et al., 1995 Eur J Biochem 229, 385-394). Briefly, 10 mM substrate were incubated with ˜30 μM recombinant enzyme overnight (12-15 hours) at 37° C. in a 100 μL reaction which included 50 mM MES pH 7.0 and +2 mM CaCl2. Reactions were quenched by the addition of 5 μL 5M NaOH and colorimetric activity determined spectroscopically at 515 nm. Fluorimetric arylsulfatase assay using 4-MUS was as described (Morimoto-Tomita et al., 2002 J Biol Chem 277, 49175-85) with some modifications. Reaction conditions included 10 μM enzyme, 2 mM 4-MUS, 50 mM sodium acetate, pH 6.0, and 5 mM CaCl2 in a 20 μL reaction volume. The enzyme incubation temperature was 30° C. Activity was measured as a function of time ranging from 3 to 24 hours; the reactions were quenched by the addition of 200 μL 0.5 M Na2CO3, pH 10.7. Detection of fluorescent methylumbelliferone was measured at this alkaline pH using a SpectraMax microtiter plate reader ([…], Sunnyvale, Calif.) set at excitation and emission wavelengths of 360 and 440 nm, respectively. Fluorescence intensity was corrected against background (minus enzyme control). In both assays, 0.5 unit of arylsulfatase from Aerobacter aerogenes (Sigma, St. Louis, Mo.) was used as a positive control.

[4] = Compositional analyses of sulfatase treated heparin; type: biochemical; conditions: 8 hours preincubation, then heparinase I and III
Method: 20 μg heparin were preincubated with 10 μM 6-O-sulfatase or N-sulfamidase for 8 hours at 30° C. in a 20 μL reaction which included 25 mM sodium acetate, pH 7.0 and 2 mM calcium acetate, pH 7.0. Following this preincubation, enzymes were inactivated by heat denaturation at 95° C. for 10 minutes and heparin exhaustively digested overnight at 37° C. by the addition of 2 μL of a concentrated enzyme cocktail containing heparinase I and III. Subsequent CE-based compositional analyses of heparinase-derived disaccharides were completed as described (Venkataraman et al., 1999 Science 286, 537-542).

[5] = Sequential degradation of heparin oligosaccharide by exo-enzymes, MALDI-MS; type: biochemical; conditions: after 2-O-sulfatase and Δ4,5 glycuronidase
Method: The purified pentasulfated tetrasaccharide ΔU2SHNS,6SIHNS,6S was provided by Dr. I. Capila (Momenta Pharmaceuticals, Cambridge, Mass.). Enzyme sequence was as follows: 2-O-sulfatase→Δ4,5 glycuronidase→6-O-sulfatase→N-sulfamidase. After each step, the enzyme was heat inactivated and 20 μL aliquots removed prior to the addition of the next enzyme in the sequence. Initial reaction conditions included 20 mM Tris, pH 7.2 and 60 nanomoles of tetrasaccharide in a 120 μL reaction volume. All enzyme reactions were carried out at 30° C. Enzyme specific conditions included the following: 1) 2-O-sulfatase, 1 μM enzyme, 6 hours; 2) Δ4,5 glycuronidase, 1 μM enzyme, 6 hours; 3) 6-O-sulfatase, 5 μM enzyme, 5 mM CaCl2, 12-15 hours; 4) N-sulfamidase, same conditions as for 6-O-sulfatase. Molecular masses of enzyme products were determined by MALDI mass spectrometry using established methods (Rhomberg et al., 1998, Proc Natl Acad Sci USA 95, 12232-12237).

Molecule	retention of enzyme activity on storage [1]	substrate specificity among four monosulfated 4-MU substrates [2]	hydrolysis of 4-MU sulfate [3]	effect of sulfatase pretreatment of unfractionated heparin on heparinase-derived cleavage products [4]	desulfation of the trisaccharides at the non-reducing end [5]	activity on the two 6-O-sulfated galactose sugars ([2]; 4-MU-Gal6S and 4-MU-GalNAc,6S)	rate of 4-MU sulfate hydrolysis relative to the ORF C protein [3]
B1	Full enzyme activity was retained for several months	could only hydrolyze the glucosamine sulfated at the 2-amino position	only negligible activity	no effect on the compositional profile	not able to do so		
B2	Full enzyme activity was retained for several months	specific for the 6-O-sulfated glucosamine	partly hydrolyze	no effect on the compositional profile	able to singularly desulfate both trisaccharides	did not act upon	at least 3 fold
